Source: the Human Domainome abundance scans (Beltran et al. 2025)

B1: Retinoic acid receptor RXR-alpha, residues 132 to 208; numbered along this chain, P19793 (parent)
chain: KHICAICGDRSSGKHYGVYSCEGCKGFFKRTVRKDLTYTCRDNKDCLIDKRQRNRCQYCRYQKCLAMGMKREAVQEE

Variants of: B1
Experiment: abundance fitness (aPCA) (normalised: wild type 0, dead -1); higher = more abundant; growth selection in yeast, the domain comes from the species named
Conditions: Homo sapiens

Abundance fitness, by site and new letter:
I48: N 0.065, C -0.035, G -0.007, D -0.031, F -0.108, Q 0.21, M 0.03, H 0.061, P -0.007, L 0.016, V 0.051, S -0.04, E -0.162, R -0.02, T 0, A -0.05, K 0.094
T37: S -0.025, V 0.035, G 0.047, Y -0.082, P 0.064, W -0.051, D 0.082, E 0.052, C 0.074, A 0.026, R -0.039, L -0.05, I -0.016, Q 0.059, K 0.066, N 0.001, H 0.053, M -0.147, F -0.046
T31: L -0.136, E -0.188, H -0.132, K -0.233, M 0, W -0.043, Y -0.094, I -0.092, R -0.504, S -0.02, F -0.078, N -0.114, A -0.03, Q -0.079, C -0.005, V -0.003, P -0.641
V32: A -0.013, N 0.015, H -0.064, Q -0.017, I -0.083, T 0.024, S -0.085, W -0.211, R -0.171, P -0.298, E 0.026, K -0.012, Y -0.079, F 0, G -0.046
L36: Y -0.055, C 0.087, W -0.028, A 0.031, D 0.053, F 0.046, E 0.021, K -0.018, H 0.014, R 0.008, Q 0.005, P -0.067, G 0.022, T -0.028, V 0.009, N -0.024, M -0.061
C40: L -0.454, N -0.732, H -0.09, I -0.697, D -0.314, M -0.621, Q -0.707, K -0.504, P -0.591, E -0.405, V -0.737, R -0.659, A -0.602, W -0.832, T -0.643, G -0.815
K29: R -0.003, L 0.009, S -0.059, C -0.223, T 0.021, M 0.038, W 0.003, N 0.027, P -0.531, E 0.028, G 0.025, H -0.074, A 0.05, F -0.035, D -0.013, I -0.163, V 0.054
F28: I -0.289, Y -0.13, W -0.024, E -0.289, C -0.753, R -0.917, M 0.024, T -0.894, H -0.495, A -0.49, P -0.906, S -0.824, V -0.321, K -1.13, D -0.57, L -0.316, N -0.653
Y38: T 0.036, D -0.115, F 0.078, S -0.031, N -0.101, V 0.001, P 0.04, E -0.063, L 0.012, H 0.027, Q -0.041, A -0.061, C -0.353, W -0.086, I -0.041, R -0.11
C46: A -0.142, L -0.378, R -0.301, D -0.035, Q -0.288, F -0.291, V -0.193, M -0.206, N -0.22, Y -0.383, E -0.189, P -0.155, G -0.186, S -0.274, I -0.436, K -0.207
